Legend:
[1] = target: T1, IkBa peptide [SEQ ID No. 1] (Homo sapiens, UniProt P25963); test: Phosphopeptide binding assay, peptide-BSA coated IPR plate
T1 construct: two phosphoserines in the DSGLDS motif (chemical modification); purchased New England Peptide, Fitchburg Mass; host or cells: chemical synthesis
Description: A phosphopeptide derived from the IkBa degradation motif (SEQ ID NO: 1) and a phosphopeptide derived from c-Myc (SEQ ID NO: 4) were chemically synthesized (New England Peptide, Fitchburg Mass.) with the following sequences respectively:
A maleimide pre-activated BSA (Pierce, Pittsburgh Pa.), which contains estimated 17 active maleimide groups on the protein surface, was used as the protein carrier, and was supplied as a lyophilized preparation. Coupling of the IkBa peptide (SEQ ID NO: 1) to the pre-activated BSA was carried out with 2 mg BSA (30 nmol) and 17 equivalents of the 25 residue phosphopeptide in 400 μl PBS. The reaction was terminated with 2 mM […] after incubation at room temperature for 30 minutes. The peptide:BSA conjugate was then purified on PD-10 gel filtration column to remove uncoupled peptide and analyzed with SDS PAGE to monitor the coupling reaction. […] After coupling and purification, the column fractions containing the peptide:BSA conjugates were pooled and the protein concentration of the pooled samples was determined by BCA assay (Pierce, Pittsburgh Pa.). NaN3, (0.02%) was added to the final peptide:BSA conjugate sample for long term storage at 4° C. […]
Two βTRCP genes, βTRCP1 and βTRCP2, are present in the human genome on chromosome 5 and 10, respectively. […] The ECL signals were measured using an imaging plate reader (IPR).

Epha7 = target: T2, Epha7 (Mus musculus, UniProt Q61772); test: Kinase inhibitor profiling, autophosphorylation; assay type: biochemical
T2 construct: autophosphorylation activity from full-length clones Spleen Tyrosine Kinase (SYK) and Eph receptor-A7 (EphA7); host or cells: rabbit reticulocyte lysate, TnT coupled in vitro transcription/translation (cell-free)
T2 sequence (Q61772 28-998): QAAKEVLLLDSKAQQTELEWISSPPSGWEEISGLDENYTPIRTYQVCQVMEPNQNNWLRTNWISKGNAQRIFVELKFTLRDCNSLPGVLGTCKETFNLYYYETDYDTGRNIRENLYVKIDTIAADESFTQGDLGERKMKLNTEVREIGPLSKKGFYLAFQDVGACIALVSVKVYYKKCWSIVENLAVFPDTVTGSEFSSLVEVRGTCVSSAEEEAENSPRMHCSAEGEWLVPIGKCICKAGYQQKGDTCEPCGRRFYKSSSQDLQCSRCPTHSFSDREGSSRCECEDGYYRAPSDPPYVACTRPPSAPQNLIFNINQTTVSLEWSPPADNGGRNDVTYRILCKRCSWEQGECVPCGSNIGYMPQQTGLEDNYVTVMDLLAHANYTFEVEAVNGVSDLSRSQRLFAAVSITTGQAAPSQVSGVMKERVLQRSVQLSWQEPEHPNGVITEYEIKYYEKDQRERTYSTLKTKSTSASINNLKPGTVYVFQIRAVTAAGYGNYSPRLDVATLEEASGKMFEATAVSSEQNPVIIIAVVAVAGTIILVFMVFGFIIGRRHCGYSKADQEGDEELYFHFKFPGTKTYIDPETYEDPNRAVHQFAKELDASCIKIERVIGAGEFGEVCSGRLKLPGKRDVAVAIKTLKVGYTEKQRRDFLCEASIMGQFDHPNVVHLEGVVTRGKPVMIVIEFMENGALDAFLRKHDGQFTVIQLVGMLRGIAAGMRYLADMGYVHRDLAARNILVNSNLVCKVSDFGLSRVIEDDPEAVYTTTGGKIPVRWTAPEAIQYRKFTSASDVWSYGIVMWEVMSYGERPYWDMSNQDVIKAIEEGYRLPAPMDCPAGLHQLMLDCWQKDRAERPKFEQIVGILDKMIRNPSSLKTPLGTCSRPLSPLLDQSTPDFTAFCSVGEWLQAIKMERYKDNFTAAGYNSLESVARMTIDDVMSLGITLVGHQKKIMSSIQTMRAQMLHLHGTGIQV

T1 sequence (P25963 with tags, fused parts or gaps limits assumed): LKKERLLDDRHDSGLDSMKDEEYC

Average ECL signal, IkBa peptide [SEQ ID No. 1] [1] | Compound | Inhibition specificity towards Autophosphorylation at 10X IC50, Epha7 (Epha7)
40879 | 3491843: IMAGE clone protein: βTRCP1 [compound 3491843] | 
371 | 3872466: IMAGE clone protein: mCBP [compound 3872466] | 
 | Cc1cc2ncc(-c3ccc(O)c(O)c3)nc2cc1C [AG-1433] | H (high inhibition (“H”=less than 25% of the activity remaining))
 | COc1c(C=O)c(O)cc2c1C(=O)c1ccccc1C2=O [Damnacanthal] | H (high inhibition (“H”=less than 25% of the activity remaining))

Reference: patent US7063946B2, “Methods, reagents, kits and apparatus for protein function analysis” (Meso Scale Technologies, LLC., priority 2001, dated 2006)
